Bridge positions count the residues as written; N and C are the ends. Ends that are not written are not given here. COCH2 = acetyl group that carries the bridge

In the experiment the target is T1, Recombinant Human FGFR2 alpha (IIIc) Fc Chimera Protein (Homo sapiens, UniProt P21802).
T1 construct: Fc (chimera); purchased R&D systems 712-FR-050
T1 sequence (P21802 with tags, fused parts or gaps limits assumed): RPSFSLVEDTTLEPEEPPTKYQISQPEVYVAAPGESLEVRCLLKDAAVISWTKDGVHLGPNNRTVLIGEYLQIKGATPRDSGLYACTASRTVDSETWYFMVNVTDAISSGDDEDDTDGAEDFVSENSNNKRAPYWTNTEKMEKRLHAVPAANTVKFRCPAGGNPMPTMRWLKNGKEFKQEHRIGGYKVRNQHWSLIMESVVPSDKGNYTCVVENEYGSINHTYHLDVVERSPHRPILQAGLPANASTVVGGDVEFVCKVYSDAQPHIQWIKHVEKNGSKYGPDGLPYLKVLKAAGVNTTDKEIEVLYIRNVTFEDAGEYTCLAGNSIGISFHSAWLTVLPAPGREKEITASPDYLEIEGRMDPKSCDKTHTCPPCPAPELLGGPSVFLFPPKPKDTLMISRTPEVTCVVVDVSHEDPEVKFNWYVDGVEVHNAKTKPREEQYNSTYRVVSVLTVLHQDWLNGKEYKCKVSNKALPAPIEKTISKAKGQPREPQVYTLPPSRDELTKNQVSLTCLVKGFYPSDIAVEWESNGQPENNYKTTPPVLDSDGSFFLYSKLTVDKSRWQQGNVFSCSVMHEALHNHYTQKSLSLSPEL
Kind of experiment: ELISA binding affinity of enzymatically synthesized peptide to FGFR. To be noted: ELISA luminescence signal at 10 nmol/L peptide, SEQ ID NO: 47 at 10 nmol/L standardized to 1; enzyme synthesis product. In short, it runs like this:
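FGFR2 alpha (IIIc) Fc chimera (5 ng/well) was immobilized, and Myc-tagged peptide was bound 3 h at room temperature, then detected with anti-Myc antibody (2 h) and chemiluminescent substrate. Signal was corrected against FGFR-free wells. Score A–D was the luminescence at 10 nmol/L peptide, normalized to cyclic peptide SEQ ID NO: 47.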
A general note: An ELISA detects its analyte on a solid surface through an enzyme-linked reagent.
For “318 (YCEENYLDPEQYQYFIYFK(COCH2)D; thioether 2-19 (inferred)) [compound 318]”, the “Evaluation result of binding affinity to FGFR” value (from here on “Evaluation result”) was “A (0.7 or more)”. The entry for “319 (YCEENYLDPEQYQYFIYFK(COCH2)E; thioether 2-19 (inferred)) [compound 319]” is “A (0.7 or more)”; for “320 (YCEENYLDPEQYQYFIYFK(COCH2)R; thioether 2-19 (inferred)) [compound 320]” it is “A (0.7 or more)”. With “321 (YCEENYLDPEQYQYFIYFK(COCH2)H; thioether 2-19 (inferred)) [compound 321]” the entry was “A (0.7 or more)”; with “322 (ACEENYLDPEQYQYFIYFK(COCH2)Y; thioether 2-19 (inferred)) [compound 322]”, “A (0.7 or more)”; with “323 (YCAENYLDPEQYQYFIYFK(COCH2)Y; thioether 2-19 (inferred)) [compound 323]”, “A (0.7 or more)”. Regarding “324 (YCEANYLDPEQYQYFIYFK(COCH2)Y; thioether 2-19 (inferred)) [compound 324]”, the “Evaluation result” value is “A (0.7 or more)”. Turning to “325 (YCEEAYLDPEQYQYFIYFK(COCH2)Y; thioether 2-19 (inferred)) [compound 325]”, the “Evaluation result” value is “C (0.1 or more and less than 0.5)”. In the case of “326 (YCEENALDPEQYQYFIYFK(COCH2)Y; thioether 2-19 (inferred)) [compound 326]”, the “Evaluation result” value was “C (0.1 or more and less than 0.5)”. With “327 (YCEENYADPEQYQYFIYFK(COCH2)Y; thioether 2-19 (inferred)) [compound 327]”, the “Evaluation result” value is “C (0.1 or more and less than 0.5)”.

On to “328 (YCEENYLAPEQYQYFIYFK(COCH2)Y; thioether 2-19 (inferred)) [compound 328]”, for which the “Evaluation result” value was “A (0.7 or more)”. The entry for “329 (YCEENYLDAEQYQYFIYFK(COCH2)Y; thioether 2-19 (inferred)) [compound 329]” is “A (0.7 or more)”; for “330 (YCEENYLDPAQYQYFIYFK(COCH2)Y; thioether 2-19 (inferred)) [compound 330]” it is “A (0.7 or more)”.

For “331 (YCEENYLDPEQYAYFIYFK(COCH2)Y; thioether 2-19 (inferred)) [compound 331]”, the “Evaluation result” value is listed as “A (0.7 or more)”. Take “332 (YCEENYLDPEQYQYFAYFK(COCH2)Y; thioether 2-19 (inferred)) [compound 332]”: the “Evaluation result” value is reported as “A (0.7 or more)”. Regarding “333 (YCEENYLDPEQYQYFIAFK(COCH2)Y; thioether 2-19 (inferred)) [compound 333]”, the “Evaluation result” value is “A (0.7 or more)”.

Regarding “334 (YCEENYLDPEQYQYFIYFK(COCH2)A; thioether 2-19 (inferred)) [compound 334]”, the “Evaluation result” value is reported as “A (0.7 or more)”. For “335 (KCEENYLDPEQYQYFIYFK(COCH2)Y; thioether 2-19 (inferred)) [compound 335]”, the “Evaluation result” value is “A (0.7 or more)”. Turning to “336 (YCKENYLDPEQYQYFIYFK(COCH2)Y; thioether 2-19 (inferred)) [compound 336]”, the “Evaluation result” value was “A (0.7 or more)”. With “337 (YCEKNYLDPEQYQYFIYFK(COCH2)Y; thioether 2-19 (inferred)) [compound 337]” the entry was “A (0.7 or more)”; with “338 (YCEENKLDPEQYQYFIYFK(COCH2)Y; thioether 2-19 (inferred)) [compound 338]”, “C (0.1 or more and less than 0.5)”; with “339 (YCEENYKDPEQYQYFIYFK(COCH2)Y; thioether 2-19 (inferred)) [compound 339]”, “A (0.7 or more)”. On to “340 (YCEENYLKPEQYQYFIYFK(COCH2)Y; thioether 2-19) [compound 340]”, for which the “Evaluation result” value is “C (0.1 or more and less than 0.5)”. On to “341 (YCEENYLDKEQYQYFIYFK(COCH2)Y; thioether 2-19) [compound 341]”, for which the “Evaluation result” value is recorded as “A (0.7 or more)”. In the case of “342 (YCEENYLDPKQYQYFIYFK(COCH2)Y; thioether 2-19) [compound 342]”, the “Evaluation result” value is “A (0.7 or more)”. Take “343 (YCEENYLDPEQYKYFIYFK(COCH2)Y; thioether 2-19) [compound 343]”: the “Evaluation result” value is “A (0.7 or more)”. As for “344 (YCEENYLDPEQYQYFKYFK(COCH2)Y; thioether 2-19) [compound 344]”, the “Evaluation result” value was “A (0.7 or more)”.

Take “345 (YCEENYLDPEQYQYFIKFK(COCH2)Y; thioether 2-19) [compound 345]”: the “Evaluation result” value is “A (0.7 or more)”. The entry for “346 (YCEENYLDPEQYQYFIYFK(COCH2)K; thioether 2-19) [compound 346]” is “A (0.7 or more)”; for “347 (MCEENYLDPEQYQYFIYFK(COCH2)Y; thioether 2-19) [compound 347]” it is “A (0.7 or more)”; for “348 (YCMENYLDPEQYQYFIYFK(COCH2)Y; thioether 2-19) [compound 348]” it is “A (0.7 or more)”. Regarding “349 (YCEMNYLDPEQYQYFIYFK(COCH2)Y; thioether 2-19) [compound 349]”, the “Evaluation result” value was “A (0.7 or more)”. “350 (YCEENMLDPEQYQYFIYFK(COCH2)Y; thioether 2-19) [compound 350]”: the “Evaluation result” value is listed as “A (0.7 or more)”. The entry for “351 (YCEENYMDPEQYQYFIYFK(COCH2)Y; thioether 2-19) [compound 351]” is “A (0.7 or more)”; for “352 (YCEENYLMPEQYQYFIYFK(COCH2)Y; thioether 2-19) [compound 352]” it is “A (0.7 or more)”. For the substance “353 (YCEENYLDMEQYQYFIYFK(COCH2)Y; thioether 2-19) [compound 353]”, the “Evaluation result” value is recorded as “A (0.7 or more)”. In the case of “354 (YCEENYLDPMQYQYFIYFK(COCH2)Y; thioether 2-19) [compound 354]”, the “Evaluation result” value is listed as “A (0.7 or more)”. “355 (YCEENYLDPEQMQYFIYFK(COCH2)Y; thioether 2-19) [compound 355]”: the “Evaluation result” value was “C (0.1 or more and less than 0.5)”. With “356 (YCEENYLDPEQYMYFIYFK(COCH2)Y; thioether 2-19) [compound 356]” the entry was “A (0.7 or more)”; with “357 (YCEENYLDPEQYQMFIYFK(COCH2)Y; thioether 2-19) [compound 357]”, “C (0.1 or more and less than 0.5)”; with “358 (YCEENYLDPEQYQYFMYFK(COCH2)Y; thioether 2-19) [compound 358]”, “A (0.7 or more)”. Consider “359 (YCEENYLDPEQYQYFIMFK(COCH2)Y; thioether 2-19) [compound 359]”, for which the “Evaluation result” value is “A (0.7 or more)”. As to “360 (YCEENYLDPEQYQYFIYFK(COCH2)M; thioether 2-19) [compound 360]”, the “Evaluation result” value is listed as “A (0.7 or more)”. As to “361 (QCYYLYWYLYK(COCH2)I; thioether 2-11) [compound 361]”, the “Evaluation result” value was “C (0.1 or more and less than 0.5)”. Turning to “362 (LCYLYQYLYTTK(COCH2)Y; thioether 2-12) [compound 362]”, the “Evaluation result” value was “C (0.1 or more and less than 0.5)”. With “363 (LCYLYQYIYTAK(COCH2)F; thioether 2-12) [compound 363]” the entry was “C (0.1 or more and less than 0.5)”. Take “364 (QCLQYLYQYLFK(COCH2)I; thioether 2-12) [compound 364]”: the “Evaluation result” value is “C (0.1 or more and less than 0.5)”. With “365 (LCYLYQYLYQAK(COCH2)F; thioether 2-12) [compound 365]”, the “Evaluation result” value was “C (0.1 or more and less than 0.5)”.

Turning to “366 (DCQQYYLYLYLWK(COCH2)I; thioether 2-13) [compound 366]”, the “Evaluation result” value is “C (0.1 or more and less than 0.5)”. For “367 (HCQLEYLYTYVLK(COCH2)I; thioether 2-13) [compound 367]”, the “Evaluation result” value was “C (0.1 or more and less than 0.5)”. Regarding “368 (QCLIQDLYAYIFK(COCH2)L; thioether 2-13) [compound 368]”, the “Evaluation result” value was “C (0.1 or more and less than 0.5)”.

For “369 (DCLQFLYLYLYQK(COCH2)T; thioether 2-13) [compound 369]”, the “Evaluation result” value was “C (0.1 or more and less than 0.5)”. With “370 (DCQLYYLYQYVLTK(COCH2)V; thioether 2-14) [compound 370]” the entry was “C (0.1 or more and less than 0.5)”.

Take “371 (DCQLWYLYQYLIVK(COCH2)A; thioether 2-14) [compound 371]”: the “Evaluation result” value was “C (0.1 or more and less than 0.5)”. Turning to “372 (QCEQLKYLYQYVLK(COCH2)L; thioether 2-14) [compound 372]”, the “Evaluation result” value is “C (0.1 or more and less than 0.5)”. “373 (QCYNYQYIYQYIYK(COCH2)I; thioether 2-14) [compound 373]”: the “Evaluation result” value was “C (0.1 or more and less than 0.5)”. Regarding “374 (QCLQDLYRYLYLLK(COCH2)A; thioether 2-14) [compound 374]”, the “Evaluation result” value is “C (0.1 or more and less than 0.5)”.

For the origin of these results see US20260008815A1, “CYCLIC PEPTIDE OR SALT THEREOF, AND USES THEREOF” (FUJIFILM Corporation, priority 2023, published 2026).
